# Experimental data reported in the Human Domainome abundance scans (Beltran et al. 2025).
# ± gives the uncertainty stated by the source.
# B1: Homeobox protein SIX3, residues 212 to 262; numbered along this chain, O95343 (parent)
# chain: CFKERTRSLLREWYLQDPYPNPSKKRELAQATGLTPTQVGNWFKNRRQRDR
# Variants of: B1
# Test: abundance fitness (aPCA) (normalised: wild type 0, dead -1); higher = more abundant; growth selection in yeast, the domain comes from the species named
# Conditions: Homo sapiens
row,Variant,abundance fitness
1,CFKERTRSLLREWYLQDPYPNPSKKRELAQATGLTDTQVGNWFKNRRQRDR [P36D],-0.638 ± 0.19
2,CFKERTRSLLREWYLQDPYPNPSKKRELAQATGLTCTQVGNWFKNRRQRDR [P36C],-0.241 ± 0.051
3,CFKERTRSLLREWYLQDPYPNPSKKRELAQATGLTLTQVGNWFKNRRQRDR [P36L],-0.087 ± 0.062
4,CFKERTRSLLREWYLQDPYPNPSKKRELAQATGLTRTQVGNWFKNRRQRDR [P36R],-0.307 ± 0.049
5,CFKERTRSLLREWYLQDPYPNPSKKRELAQATGLTSTQVGNWFKNRRQRDR [P36S],-0.274 ± 0.07
6,CFKERTRSLLREWYLQDPYPNPSKKRELAQATGLTGTQVGNWFKNRRQRDR [P36G],-0.596 ± 0.043
7,CFKERTRSLLREWYLQDPYPNPSKKRELAQATGLTNTQVGNWFKNRRQRDR [P36N],-0.815 ± 0.34
8,CFKERTRSLLREWYLQDPYPNPSKKRELAQATGLTTTQVGNWFKNRRQRDR [P36T],-0.066 ± 0.072
9,CFKERTRSLLREWYLQDPYPNPSKKRELAQATGLTETQVGNWFKNRRQRDR [P36E],0.066 ± 0.046
10,CFKERTRSLLREWYLQDPYPNPSKKRELAQATGLTKTQVGNWFKNRRQRDR [P36K],-0.048 ± 0.074
11,CFKERTRSLLREWYLQDPYPNPSKKRELAQATGLTITQVGNWFKNRRQRDR [P36I],-0.096 ± 0.11
12,CFKERTRSLLREWYLQDPYPNPSKKRELAQATGLTATQVGNWFKNRRQRDR [P36A],-0.226 ± 0.09
13,CFKERTRSLLREWYLQDPYPNPSKKRELAQATGLTQTQVGNWFKNRRQRDR [P36Q],-0.235 ± 0.12
14,CFKERTRSLLREWYLQDPYPNPSKKRELAQATGLTMTQVGNWFKNRRQRDR [P36M],0.03 ± 0.074
15,CFKERTRSLLREWYLQDPYPNPSKKRELAQATGLTFTQVGNWFKNRRQRDR [P36F],0.184 ± 0.075
16,CFKERTRSLLREWYLQDPYPNPSKKRELAQATGLTWTQVGNWFKNRRQRDR [P36W],-0.536 ± 0.1
17,CFKERTRSLLREWYLQDPYPNPSKKRELAQATGLTHTQVGNWFKNRRQRDR [P36H],-0.305 ± 0.13
18,CFKERTRSLLREWYLQDPYPNPSKKRELAQATGLTPQQVGNWFKNRRQRDR [T37Q],0.211 ± 0.078
19,CFKERTRSLLREWYLQDPYPNPSKKRELAQATGLTPWQVGNWFKNRRQRDR [T37W],-0.441 ± 0.074
20,CFKERTRSLLREWYLQDPYPNPSKKRELAQATGLTPDQVGNWFKNRRQRDR [T37D],0.326 ± 0.081
21,CFKERTRSLLREWYLQDPYPNPSKKRELAQATGLTPGQVGNWFKNRRQRDR [T37G],-0.126 ± 0.047
22,CFKERTRSLLREWYLQDPYPNPSKKRELAQATGLTPFQVGNWFKNRRQRDR [T37F],-0.678 ± 0.19
23,CFKERTRSLLREWYLQDPYPNPSKKRELAQATGLTPHQVGNWFKNRRQRDR [T37H],-0.099 ± 0.074
24,CFKERTRSLLREWYLQDPYPNPSKKRELAQATGLTPVQVGNWFKNRRQRDR [T37V],-0.091 ± 0.075
25,CFKERTRSLLREWYLQDPYPNPSKKRELAQATGLTPSQVGNWFKNRRQRDR [T37S],-0.186 ± 0.068
26,CFKERTRSLLREWYLQDPYPNPSKKRELAQATGLTPNQVGNWFKNRRQRDR [T37N],-0.27 ± 0.12

row,Variant,abundance fitness
1,CFKERTRSLLREWYLQDPYPNPSKKRELAQATGLTPAQVGNWFKNRRQRDR [T37A],-0.11 ± 0.072
2,CFKERTRSLLREWYLQDPYPNPSKKRELAQATGLTPRQVGNWFKNRRQRDR [T37R],0.014 ± 0.058
3,CFKERTRSLLREWYLQDPYPNPSKKRELAQATGLTPLQVGNWFKNRRQRDR [T37L],-0.255 ± 0.045
4,CFKERTRSLLREWYLQDPYPNPSKKRELAQATGLTPIQVGNWFKNRRQRDR [T37I],-0.184 ± 0.044
5,CFKERTRSLLREWYLQDPYPNPSKKRELAQATGLTPPQVGNWFKNRRQRDR [T37P],-0.416 ± 0.096
6,CFKERTRSLLREWYLQDPYPNPSKKRELAQATGLTPMQVGNWFKNRRQRDR [T37M],-0.055 ± 0.091
7,CFKERTRSLLREWYLQDPYPNPSKKRELAQATGLTPCQVGNWFKNRRQRDR [T37C],-0.051 ± 0.094
8,CFKERTRSLLREWYLQDPYPNPSKKRELAQATGLTPEQVGNWFKNRRQRDR [T37E],0.164 ± 0.065
9,CFKERTRSLLREWYLQDPYPNPSKKRELAQATGLTPTQVGNAFKNRRQRDR [W42A],-0.793 ± 0.052
10,CFKERTRSLLREWYLQDPYPNPSKKRELAQATGLTPTQVGNCFKNRRQRDR [W42C],-0.901 ± 0.36
11,CFKERTRSLLREWYLQDPYPNPSKKRELAQATGLTPTQVCNWFKNRRQRDR [G40C],-0.13 ± 0.085
12,CFKERTRSLLREWYLQDPYPNPSKKRELAQATGLTPTQVMNWFKNRRQRDR [G40M],-0.621 ± 0.12
13,CFKERTRSLLREWYLQDPYPNPSKKRELAQATGLTPTQVFNWFKNRRQRDR [G40F],-0.858 ± 0.13
14,CFKERTRSLLREWYLQDPYPNPSKKRELAQATGLTPTQVVNWFKNRRQRDR [G40V],-0.6 ± 0.076
15,CFKERTRSLLREWYLQDPYPNPSKKRELAQATGLTPTQVNNWFKNRRQRDR [G40N],0.131 ± 0.099
16,CFKERTRSLLREWYLQDPYPNPSKKRELAQATGLTPTQVLNWFKNRRQRDR [G40L],-0.731 ± 0.078
17,CFKERTRSLLREWYLQDPYPNPSKKRELAQATGLTPTQVDNWFKNRRQRDR [G40D],-0.227 ± 0.062
18,CFKERTRSLLREWYLQDPYPNPSKKRELAQATGLTPTQVSNWFKNRRQRDR [G40S],0.006 ± 0.06
19,CFKERTRSLLREWYLQDPYPNPSKKRELAQATGLTPTQVHNWFKNRRQRDR [G40H],-0.122 ± 0.11
20,CFKERTRSLLREWYLQDPYPNPSKKRELAQATGLTPTQVWNWFKNRRQRDR [G40W],-0.81 ± 0.052
21,CFKERTRSLLREWYLQDPYPNPSKKRELAQATGLTPTQVYNWFKNRRQRDR [G40Y],-0.871 ± 0.23
22,CFKERTRSLLREWYLQDPYPNPSKKRELAQATGLTPTQVRNWFKNRRQRDR [G40R],0.008 ± 0.048
23,CFKERTRSLLREWYLQDPYPNPSKKRELAQATGLTPTQVANWFKNRRQRDR [G40A],-0.146 ± 0.063
24,CFKERTRSLLREWYLQDPYPNPSKKRELAQATGLTPTQVKNWFKNRRQRDR [G40K],0.097 ± 0.05
25,CFKERTRSLLREWYLQDPYPNPSKKRELAQATGLTPTQVENWFKNRRQRDR [G40E],-0.099 ± 0.049
